In patent US20100279930A1 (published 2010):
Where two headings read alike, the source gives them in different places.

Tests used:
[1] = target: T1, human Y4 receptor (human, UniProt P50391 1-375); assay: 125I-PP displacement
[2] = target: T1, human Y4 receptor; assay: 125I-PP displacement; remark: listed apart in the source

T1 sequence (P50391 whole entry): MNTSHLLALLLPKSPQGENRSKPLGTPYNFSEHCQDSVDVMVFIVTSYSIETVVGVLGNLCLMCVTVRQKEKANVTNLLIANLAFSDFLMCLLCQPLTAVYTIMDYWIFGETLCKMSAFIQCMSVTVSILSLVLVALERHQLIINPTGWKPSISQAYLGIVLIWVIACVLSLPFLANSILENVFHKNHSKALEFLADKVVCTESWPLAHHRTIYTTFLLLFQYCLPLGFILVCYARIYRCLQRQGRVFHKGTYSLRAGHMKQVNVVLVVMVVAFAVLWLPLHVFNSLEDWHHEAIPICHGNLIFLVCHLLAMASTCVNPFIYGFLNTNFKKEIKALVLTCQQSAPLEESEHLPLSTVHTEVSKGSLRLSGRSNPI

Row | Binder | IC50 [1] [pM] | IC50 [2] [pM]
1 | APLEPVYPGDNATPEQMAQYAADLNLRYINMLTRPRY [4054990] | 670 | 
2 | PAPLEPKYPGDDATPQQMARYAAELRRYINKLTRPRY [7255] | 91 | 
3 | PAPLEPTYPGDNATPEQMAKYAAELRRYINKLTRPRY [7252] | 82 | 
4 | PAPLEPTYPGDDATPQQMARYAAELRRYINILTRPRY [7271] | 220 | 
5 | PAPLEPEYPGDDATPQQMARYAAELRRYINFLTRPRY [7257] | 142 | 
6 | AAPLEPTYPGDDATPQQMARYAAELRRYINFLTRPRY [7274] | 107 | 
7 | PAPLEPTYPGDDATPQQMARYAAELRRYINKLTRPRY [7258] | 68 | 
8 | PAPLEPEYPGDNATPEQMARYAAELRRYINKLTRPRY [7254] | 109 | 
9 | PAPLEPTYPGDDATPQQMAKYAAELRRYINILTRPRY [7270] | 171 | 
10 | APLEPVYPGDNATPEQMAEYAADLRRYINMLTRPRY [4055524] | 300 | 
11 | APLEPVYPGDNATPEQMAHYAADLRRYINMLTRPRY [4055525] | 110 | 
12 | APLEPVYPGDNATPEQMARYAAALRRYINMLTRPRY [7242] | 140 | 
13 | APLEPVYPGDNATPEQMAQYAADLRRYINLLTRPRY [4055399] | 280 | 
14 | APLEPVYPGDNATPEQMAQYAADLRRYIDMLTRPRY [4055403] | 500 | 
15 | APLEPVYPGDNATPEQMAQYAADLRRYINMLTRPQY [4054977] | 1800 | 
16 | APLEPVYPGDNATPEQMAKYAADLRRYINMLTRPRY [compound of SEQ ID NO:224 (Lys 19, code 4055291)] | 320 | 
17 | PLEPFYPGDDATPQQMAQYAAALRRYINMLTRPRY [4055287] | 500 | 
18 | APLEPVYPGDDATPQQMAQYYAELRHYLNLVTRPRY [4055248] | 380 | 
19 | APLEPVYPGDNATPEQMAQYYASLQHYLNLVTRPRY [4055246] | 460 | 
20 | APLEPVYPGDDATPQQMAQYYASLRHYLNLVTRPRY [4055247] | 300 | 
21 | APLEPVYPGDNATPEQMAQYYASLRHYLNLVTRPRY [4055245] | 500 | 
22 | APLEPVYPGDNATPEQNLAQYAADLRRYINMLTRPRY [4055398] | 150 | 
23 | KPLEPVYPGDDATPQQMAQYAAELRRYINMLTRPRY [4055197] | 620 | 
24 | APLEPVYPGDDATPEQMAQYAAELRRYINMLTRPRY [4055195] | 860 | 
25 | APLEPVYPGDDATPEQMAEYAADLRRYINMLTRPRY [4055406] | 170 | 
26 | PAPLEPTYPGDNATPEQMAKYAAALRRYINMLTRPRY [7250] | 99 | 
27 | PAPLEPTYPGDNATPEQMARYAAALRRYINMLTRPRY [7249] | 89 | 

The next lines start with the values.

Row | IC50 [1] [pM] | IC50 [2] [pM] | Binder
28 | 58 |  | PAPLEPVYPGDNATPEQMARYAAALRRYINKLTRPRY [7243]
29 | 132 |  | PAPLEPEYPGDDATPQQMARYAAELRRYINILTRPRY [7256]
30 | 131 |  | PAPLEPKYPGDNATPEQMARYAAALRRYINMLTRPRY [7248]
31 | 187 |  | PAPLEPTYPGDDATPQQMARYAAALRRYINILTRPRY [7269]
32 | 290 |  | APLEPEYPGDDATPEQMAEYAADLRRYINMLTRPRY [4055407]
33 | 720 |  | APLEPVYPGDNATPEQMAQYAADLRRYINMLTRPHY [4054987]
34 | 1400 |  | APLEPVYPGDNATPEQMAQYAADLRRYINMLTRPMY [4054976]
35 | 380 |  | APLEPVYPGDNATPEQMAQYAADLMRYINMLTRPRY [4054981]
36 | 240 |  | APPEPVYPGDDATPEQMAEYVADLRRYINMLTRPRY [4055405]
37 | 200 |  | APLEPVYPGDNATPEQLAQYAADLRKYINLLTRPRY [4055549]
38 |  | 110 | AAPLEPVYPGDNATPEELNRYYASLRRYINMLTRPRY [6671]
39 | 170 |  | APLEPVYPGDNATPEQMNRYYASLRHYLNLVTRPRY [4054985]
40 | 400 |  | KPLEPVYPGDNATPEQMAQYAADLRRYINMLTRPRY [4055292]
41 | 330 |  | KPLEPVYPGDDATPQQMAQYAAELRRYINMLTRPRY [4055196]
42 | 95 |  | PAPLEPTYPGDNATPEQMAKYAAELRRYINFLTRPRY [7253]
43 | 106 |  | PAPLEPVYPGDNATPEQIARYAAALRRYINKLTRPRY [7244]
